Like-named read-outs stand apart in the source and are kept apart here.
Key:
[1] = target: heliorhodopsin 48C12 (actinobacterium (fosmid from freshwater lake Kinneret)); experiment: crystal structure
[2] = target: heliorhodopsin 48C12 (actinobacterium (fosmid from freshwater lake Kinneret)); experiment: crystal structure; remark: listed apart in the source

Substance: heliorhodopsin 48C12 (from UniProt A0A2R4S913 1-256) (natural protein)
- stoichiometry N [1]: 2
- stoichiometry N [2]: 2

Reference: article doi:10.1101/767665
